From paper PMC4755762

What was measured:
[1] = target: CD11c_(614-682b)-YFP/CD18 chimera on CHO cells (human) (UniProt P11215); assay: flow cytometry on cells; 2x10^5 CHO cells expressing YFP-fused integrins with different concentrations of CyaA-biotin; streptavidin-PE; mean fluorescence intensities against CyaA concentration
[2] = target: CR3 chimera with residues 33 to 115 of CD11b replaced by the corresponding segment of CD11c, with CD18, on CHO cells (human) (UniProt P11215); assay: flow cytometry on cells
[3] = target: CR3 chimera with residues 686 to 1152 of CD11b replaced by the corresponding segment of CD11c, with CD18, on CHO cells (human) (UniProt P11215); assay: flow cytometry on cells
[4] = target: CD11b_(614-682c)/CD18 chimera on CHO cells (human) (UniProt P11215); assay: flow cytometry on cells
[5] = target: CD11b_(342-424c)/CD18 chimera on CHO cells (human) (UniProt P11215); assay: flow cytometry on cells

adenylate cyclase toxin-hemolysin (CyaA) of Bordetella pertussis, intact (from UniProt P0DKX7 1-1706) (natural protein)
fold higher CyaA binding than CD11c-YFP/CD18 [1]: 24 fold
fold lower CyaA binding than CD11b-YFP/CD18 [1]: 1.7 fold
CyaA binding, percent of binding to intact CD11b/CD18 [2]: 72%
CyaA binding, percent of binding to intact CD11b/CD18 [3]: 89%
fold decrease of CyaA binding against intact CR3 [4]: 10 fold
CyaA binding, percent of binding to intact CD11b/CD18 [5]: 61%
